Experimental data taken from patent US20250011418A1 (ZIELBIO, published 2025).
Changes are numbered by the printed parent chain. Read-outs that look alike come from different tables or passages of the source.

B1: murine anti-CSP-1 antibody 1D7 (hybridoma clone) (antibody, V domains shown)
VH: EVQLVESGGDLVKPGGSLKLSCAASGFTFSRYGMSWVRQTPDKRLEWVATISIGGTYTYYPDSMKGRFTISRDNAKNTLYLQMSSLKSEDTAMYYCARRGYGNYSYYGMDYWGQGTSVTVSS
VL: DIVMTQAAFSNPVTLGTSASISCRSSKSLLHSNGITYLYWYLQKPGQSPQLLIYQMSNLASGVPDRFSSSGSGTDFTLRISRVEAEDVGVYYCAQNLELPLTFGAGTKLELK
notes: Murine antibody
B2: humanized anti-CSP-1 antibody, Antibody Number 37 (Table 1) (antibody, human IgG1, V domains shown)
VH: B1 VH with D10G, K13Q, K19R, T40A, D42G, A75S, S84N, K87R, S88A, S117L
VL: B1 VL with A7S, F9L, N11L, T17Q, L59R, R79K, A105Q, L111I
notes: also called Antibody 37
B3: humanized anti-CSP-1 antibody, Antibody Number 45 (Table 1) (antibody, human IgG1, V domains shown)
VH: EVQLVESGGGLVKPGGSLRLSCAASGFTFSRYGMNWVRQAPGKGLEWVSSISIGGTYTYYADSVKGRFTISRDNAKNSLYLQMNSLRAEDTAVYYCARRGYGNYSYYGMDYWGQGTLVTVSS
VL: B1 VL with A7S, A8P, F9L, N11L, L15P, T17E, S18P, R79K, A105Q, L111I
notes: also called Antibody 45
B4: humanized anti-CSP-1 antibody, Antibody Number 36 (Table 1) (antibody, human IgG1, V domains shown)
VH: B1 VH with D10G, K13Q, K19R, T40A, D42G, A75S, S84N, K87R, S88A, S117L
VL: B1 VL with A7S, F9L, T17Q, L59R, R79K, A105Q, L111I
notes: also called Antibody 36
B5: humanized anti-CSP-1 antibody, Antibody Number 39 (Table 1) (antibody, human IgG1, V domains shown)
VH: B3 VH with K13Q, N35S, S49A, S50T, A61P, V64M, A75S, S78T
VL: B1 VL with A7S, F9L, N11L, T17Q, L59R, R79K, A105Q, L111I
notes: also called Antibody 39
B6: humanized anti-CSP-1 antibody, Antibody Number 50 (Table 1) (antibody, human IgG1, V domains shown)
VH: EVQLVESGGGLVQPGGSLRLSCAASGFTFSRYGMSWVRQAPGKRLEWVATISIGGTYTYYPDSMKGRFTISRDNSKNTLYLQMNSLRAEDTAMYYCARRGYGQYSYYGLDYWGQGTLVTVSS
VL: B1 VL with A7S, F9L, T17Q, L59R, R79K, A105Q, L111I
notes: also called Antibody 50
B7: humanized anti-CSP-1 antibody, Antibody Number 30 (Table 1) (antibody, human IgG1, V domains shown)
VH: EVQLVESGGEVVKPGASLKLSCKASGFTFSRYGMSWVRQAPGQRLEWVATISIGGTYTYYPDSMKGRFTITRDNSTNTLYLEMSSLRSEDTAMYYCARRGYGNYSYYGMDYWGQGTLVTVSS
VL: B1 VL
notes: also called Antibody 30
B8: humanized anti-CSP-1 antibody, Antibody Number 38 (Table 1) (antibody, human IgG1, V domains shown)
VH: B6 VH with R44G, M93V, Q103N, L109M
VL: B1 VL with A7S, F9L, T17Q, L59R, R79K, A105Q, L111I
notes: also called Antibody 38
B9: humanized anti-CSP-1 antibody, Antibody Number 46 (Table 1) (antibody, human IgG1, V domains shown)
VH: B3 VH with N35S
VL: B1 VL with A7S, A8P, F9L, N11L, L15P, T17E, S18P, R79K, A105Q, L111I
notes: also called Antibody 46
B10: humanized anti-CSP-1 antibody, Antibody Number 49 (Table 1) (antibody, human IgG1, V domains shown)
VH: B6 VH with L109M
VL: B1 VL with A7S, F9L, T17Q, L59R, R79K, A105Q, L111I
notes: also called Antibody 49
B11: humanized anti-CSP-1 antibody, Antibody Number 35 (Table 1) (antibody, human IgG1, V domains shown)
VH: B7 VH
VL: B1 VL with A7S, F9L, T17Q, L59R, R79K, A105Q, L111I
notes: also called Antibody 35
B12: humanized anti-CSP-1 antibody, Antibody Number 31 (Table 1) (antibody, human IgG1, V domains shown)
VH: B6 VH with Q103N, L109M
VL: B1 VL
notes: also called Antibody 31
B13: humanized anti-CSP-1 antibody, Antibody Number 32 (Table 1) (antibody, human IgG1, V domains shown)
VH: B6 VH with R44G, M93V, Q103N, L109M
VL: B1 VL
notes: also called Antibody 32
B14: humanized anti-CSP-1 antibody, Antibody Number 33 (Table 1) (antibody, human IgG1, V domains shown)
VH: B1 VH
VL: B1 VL with A7S, F9L, T17Q, L59R, R79K, A105Q, L111I
notes: also called Antibody 33
B15: humanized anti-CSP-1 antibody, Antibody Number 34 (Table 1) (antibody, human IgG1, V domains shown)
VH: B1 VH
VL: B1 VL with A7S, F9L, N11L, T17Q, L59R, R79K, A105Q, L111I
notes: also called Antibody 34
B16: murine anti-CSP-1 antibody 1H11 (antibody, V domains shown)
VH: QIQLVQSGPELKKPGETVKISCKASGYTFTDYSMHWVKQAPGKGLKWMGWINTETGEPTYADDFKGRFAFSLETSASTAYLQINNLKNEDTATYFCAPGGFAYWGQGTLVTVSA
VL: DIVMTQAAPSVPVTPGESVSISCRSSKSLLHSNGNTYLYWFLQRPGQSPQLLIYRMSNLASGVPDRFSGSGSGTAFTLRISRVEAEDVGVYYCMQHLEYPLTFGAGTKLELKR
notes: Murine antibody; also called 1H11B5
B17: antibody-drug conjugate comprising the murine anti-CSP-1 antibody 1H11 and the chemotherapeutic drug SN38 (antibody, V domains shown)
VH: B16 VH
VL: B16 VL
modifications: SN38 (small-molecule drug) is conjugated to the antibody. The linker, the conjugation residues, the chain that carries it and the drug-to-antibody ratio are not stated, and the letters cannot carry it.
notes: also called 1H11-SN38 conjugate
B18: humanized anti-CSP-1 antibody, Antibody Number 42 (Table 1) (antibody, human IgG1, V domains shown)
VH: QIQLVQSGSELKKPGASVKVSCKASGYTFTDYSMHWVRQAPGQGLEWMGWINTETGEPTYAQGFTGRFVFSLDTSVSTAYLQISSLKAEDTAVYFCAPGGFAYWGQGTLVTVSS
VL: DIVMTQSPLSLPVTPGEPASISCRSSKSLLHSNGNTYLYWFLQKPGQSPQLLIYRMSNLASGVPDRFSGSGSGTDFTLKISRVEAEDVGVYYCMQHLEYPLTFGAGTKLELK
notes: also called Antibody 42
B19: humanized anti-CSP-1 antibody, Antibody Number 8 (Table 1) (antibody, human IgG1, V domains shown)
VH: QIQLVQSGPEVKKPGASVKISCKASGYTFTDYSMHWVRQAPGQGLEWMGWINTETGEPTYAQKFQGRFTFTLDTSTSTAYLEISSLRSEDTAVYFCAPGGFAYWGQGTLVTVSS
VL: B18 VL with S7A, P8A, L9P, L11V, P18S, A19V, K44R, D75A, K79R
notes: also called Antibody 8
B20: humanized anti-CSP-1 antibody, Antibody Number 43 (Table 1) (antibody, human IgG1, V domains shown)
VH: B3 VH
VL: B18 VL with N35I, F41Y, R55Q, L59R, M94A, H96N, Y99L, A105Q, L111I
notes: also called Antibody 43
B21: humanized anti-CSP-1 antibody, Antibody Number 44 (Table 1) (antibody, human IgG1, V domains shown)
VH: B3 VH
VL: B18 VL with N35I, F41Y, R55Q, M94A, H96N, Y99L, A105Q, L111I
notes: also called Antibody 44
B22: humanized anti-CSP-1 antibody, Antibody Number 41 (Table 1) (antibody, human IgG1, V domains shown)
VH: B18 VH
VL: B18 VL with L59R, A105Q, L111I
notes: also called Antibody 41
B23: humanized anti-CSP-1 antibody, Antibody Number 40 (Table 1) (antibody, human IgG1, V domains shown)
VH: B18 VH with I2V, H35N, F95Y
VL: B18 VL with L59R, A105Q, L111I
notes: also called Antibody 40
B24: humanized anti-CSP-1 antibody, Antibody Number 48 (Table 1) (antibody, human IgG1, V domains shown)
VH: B18 VH
VL: B18 VL with M56L
notes: also called Antibody 48

Key:
[1] = target: T1, Reb-His (Reb, a sub-fragment of Sec8, tagged with a polyhistidine (His) tag); test: ELISA on REB-HIS, absorbance 650 nm against concentration in nM on a log axis
T1 construct: also called Reb-His peptide
T1 chain: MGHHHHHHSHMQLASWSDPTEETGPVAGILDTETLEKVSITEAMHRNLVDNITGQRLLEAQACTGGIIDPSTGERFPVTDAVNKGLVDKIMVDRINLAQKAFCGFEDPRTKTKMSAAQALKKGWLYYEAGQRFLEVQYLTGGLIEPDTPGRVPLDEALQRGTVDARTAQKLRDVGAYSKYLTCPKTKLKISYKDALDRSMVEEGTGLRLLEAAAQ

[2] = target: T1, Reb-His (Reb, a sub-fragment of Sec8, …); test: ELISA on REB-HIS, absorbance 650 nm; no unit stands beside the number, the concentration axis is in nM
[3] = target: T2, Sec8-His (section 8 (Sec8), an antigenic region of CSP-1, tagged with a polyhistidine (His) tag); test: BLI (Octet), single shot: antibody on anti-human IgG tips, 24 nM Sec8-His
T2 construct: also called Sec8-His antigen
T2 chain: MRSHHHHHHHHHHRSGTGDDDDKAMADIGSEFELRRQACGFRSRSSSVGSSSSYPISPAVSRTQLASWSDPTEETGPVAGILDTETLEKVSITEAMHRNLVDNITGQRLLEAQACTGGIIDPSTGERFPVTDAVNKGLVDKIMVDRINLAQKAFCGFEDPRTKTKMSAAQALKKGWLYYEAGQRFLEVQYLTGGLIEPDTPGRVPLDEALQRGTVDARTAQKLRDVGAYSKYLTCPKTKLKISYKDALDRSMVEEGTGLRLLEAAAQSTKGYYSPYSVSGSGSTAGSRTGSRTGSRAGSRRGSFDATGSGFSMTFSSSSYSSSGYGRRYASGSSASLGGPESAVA
Experimental: After humanization, the antibodies were tested for their capability to bind to an antigenic region of CSP-1 called section 8 (Sec8). Antigen binding was assessed by single-shot Octet analysis. Antibodies were loaded onto anti-human IgG tips, and the loaded tips were dipped into wells containing the Sec8-His antigen. Scouting experiments were used to determine ideal conditions for loading (10 minute incubation in 1 μg/mL IgG) and antigen binding (5 minute incubation in 24 nM Sec8-His, followed by a 5 minute dissociation step in buffer). Two negative controls were included with each experiment. First, a tip was loaded with irrelevant IgG dipped into 24 nM Sec8-His to control for non-specific interactions between the tip and the antigen. Next, tips loaded with humanized 1D7 variants were dipped into 24 nM GST-His to control for off-target binding of the antibody (a significant risk if a given variant is destabilized and/or exposes significant hydrophobic surface). The data from the irrelevant IgG control were subtracted from the data obtained with the […]-loaded tips. The mean and standard deviation of the signal change values for the GST-His control wells were used to calculate a threshold for positive binding (mean+3 standard deviations of the GST-His signal). Variants that were below this threshold are considered to have no specific binding to Sec8.

[4] = target: T2, Sec8-His (section 8 (Sec8), an …); test: ELISA on Sec8-His (target per paragraph 36), absorbance 650 nm; curve assigned by the marker in the legend
[5] = target: T1, Reb-His (Reb, a sub-fragment of Sec8, …); test: ELISA on REB-HIS, absorbance 650 nm; no unit stands beside the number, the concentration axis is in nM
[6] = target: T2, Sec8-His (section 8 (Sec8), an …); test: ELISA on Sec8-His (target per paragraph 36), absorbance 650 nm; no unit stands beside the number, the concentration axis is in nM; number as printed beside the name, but it fits the circle curve better than the square curve
[7] = target: T2, Sec8-His (section 8 (Sec8), an …); test: ELISA on Sec8-His (target per paragraph 36), absorbance 650 nm; no unit stands beside the number, the concentration axis is in nM; number as printed beside the name, but it fits the square curve better than the circle curve

Binder	binding result [3]	other results
B1	–	EC50 (read off the curve) [1]: ~0.4 nM; EC50 [2]: 0.365 nM
B2	binds	–
B3	binds	–
B4	binds	–
B5	binds	–
B6	binds	–
B7	binds	–
B8	binds	–
B9	binds	–
B10	binds	–
B11	binds	–
B12	binds	–
B13	binds	–
B14	binds	–
B15	binds	–
B16	–	EC50 (read off the curve) [4]: ~0.1 nM; EC50 [5]: 0.531 nM; Kd [6]: 0.583 nM
B17	–	EC50 (read off the curve) [4]: ~0.6 nM; Kd [7]: 0.14 nM
B18	binds	–
B19	binds	–
B20	binds	–
B21	binds	–
B22	binds	–
B23	binds	–
B24	binds	–
